According to IntAct's records for PubMed 23354168:

B1: Ephrin-B2 (Mus musculus), P52800 (parent)
chain: MAMARSRRDSVWKYCWGLLMVLCRTAISRSIVLEPIYWNSSNSKFLPGQGLVLYPQIGDKLDIICPKVDSKTVGQYEYYKVYMVDKDQADRCTIKKENTPLLNCARPDQDVKFTIKFQEFSPNLWGLEFQKNKDYYIISTSNGSLEGLDNQEGGVCQTRAMKILMKVGQDASSAGSARNHGPTRRPELEAGTNGRSSTTSPFVKPNPGSSTDGNSAGHSGNNLLGSEVALFAGIASGCIIFIVIIITLVVLLLKYRRRHRKHSPQHTTTLSLSTLATPKRGGNNNGSEPSDVIIPLRTADSVFCPHYEKVSGDYGHPVYIVQEMPPQSPANIYYKV
partner: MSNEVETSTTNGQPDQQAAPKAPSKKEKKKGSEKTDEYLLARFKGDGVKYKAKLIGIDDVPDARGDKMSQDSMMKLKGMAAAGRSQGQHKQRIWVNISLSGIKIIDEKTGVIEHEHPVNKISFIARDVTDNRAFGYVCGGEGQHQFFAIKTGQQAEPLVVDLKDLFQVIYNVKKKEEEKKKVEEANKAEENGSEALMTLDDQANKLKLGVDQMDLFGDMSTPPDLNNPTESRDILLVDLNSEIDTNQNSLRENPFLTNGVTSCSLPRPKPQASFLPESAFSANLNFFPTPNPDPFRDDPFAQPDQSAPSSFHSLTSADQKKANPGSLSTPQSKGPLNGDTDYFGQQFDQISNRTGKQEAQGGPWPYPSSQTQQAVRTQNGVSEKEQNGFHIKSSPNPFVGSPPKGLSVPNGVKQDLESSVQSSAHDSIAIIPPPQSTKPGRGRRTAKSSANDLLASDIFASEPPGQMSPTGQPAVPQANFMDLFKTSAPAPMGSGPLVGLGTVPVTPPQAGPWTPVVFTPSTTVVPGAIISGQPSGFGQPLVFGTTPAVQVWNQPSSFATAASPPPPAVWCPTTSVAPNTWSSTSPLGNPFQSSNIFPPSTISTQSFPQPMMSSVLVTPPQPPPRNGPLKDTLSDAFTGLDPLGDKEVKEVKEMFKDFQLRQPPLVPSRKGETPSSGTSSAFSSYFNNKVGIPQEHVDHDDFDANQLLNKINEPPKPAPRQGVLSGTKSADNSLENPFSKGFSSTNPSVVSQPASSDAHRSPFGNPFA

Variants of: B1
Details: with dab2_rat Dab2, O88797

| effect of a mutation on the interaction | Variant |
| --- | --- |
| disrupting interaction strength | MAMARSRRDSVWKYCWGLLMVLCRTAISRSIVLEPIYWNSSNSKFLPGQGLVLYPQIGDKLDIICPKVDSKTVGQYEYYKVYMVDKDQADRCTIKKENTPLLNCARPDQDVKFTIKFQEFSPNLWGLEFQKNKDYYIISTSNGSLEGLDNQEGGVCQTRAMKILMKVGQDASSAGSARNHGPTRRPELEAGTNGRSSTTSPFVKPNPGSSTDGNSAGHSGNNLLGSEVALFAGIASGCIIFIVIIITLVVLLLKYRRRHRKHSPQHTTTLSLSTLATPKRGGNNNGSEPSDVIIPLRTADSVFCPHYEKVSGDYGHPVYIVQEMPPQSPANIYYKS [V336S] |
